Test results: paper PMC7948407 (2020)

What was measured:
[1] = molecular target: T1, SAT C-terminal C10 peptide C-terminal 10 residues (Haemophilus influenzae, UniProt P43886); assay: PLP fluorescence titration
T1 chain: GIDDGMNLNI

[2] = molecular target: T2, SAT C-terminal C10 peptide C-terminal 10 residues (Salmonella typhimurium, UniProt P29847); assay: PLP fluorescence titration
T2 chain: HHTFEYGDGI

| Binder | Kd [1] | Kd [2] |
| --- | --- | --- |
| Cysteine synthase (HiCS) (protein) MAIYADNSYSIGNTPLVRLKHFGHNGNVVVKIEGRNPSYSVKCRIGANMVWQAEKDGTLTKGKEIVDATSGNTGIALAYVAAARGYKITLTMPETMSLERKRLLCGLGVNLVLTEGAKGMKGAIAKAEEIVASDPSRYVMLKQFENPANPQIHRETTGPEIWKDTDGKVDVVVAGVGTGGSITGISRAIKLDFGKQITSVAVEPVESPVISQTLAGEEVKPGPHKIQGIGAGFIPKNLDLSIIDRVETVDSDTALATARRLMAEEGILAGISSGAAVAAADRLAKLPEFADKLIVVILPSASERYLSTALFEGIEG | 3400 nM |  |
| Cysteine synthase (StCS) (protein) SKIYEDNSLTIGHTPLVRLNRIGNGRILAKVESRNPSFSVKCRIGANMIWDAEKRGVLKPGVELVEPTSGNTGIALAYVAAARGYKLTLTMPETMSIERRKLLKALGANLVLTEGAKGMKGAIQKAEEIVASDPQKYLLLQQFSNPANPEIHEKTTGPEIWEDTDGQVDVFISGVGTGGTLTGVTRYIKGTKGKTDLITVAVEPTDSPVIAQALAGEEIKPGPHKIQGIGAGFIPGNLDLKLIDKVVGITNEEAISTARRLMEEEGILAGISSGAAVAAALKLQEDESFTNKNIVVILPSSGERYLSTALFADLFTEKELQQ |  | 290 nM |
